Assay results from the Human Domainome abundance scans (Beltran et al. 2025).
± gives the uncertainty stated by the source.

B1: E3 ubiquitin-protein ligase Midline-1, residues 172 to 214; numbered along this chain, O15344 (parent)
chain: GLMCLEHEDEKVNMYCVTDDQLICALCKLVGRHRDHQVAALSE
B2: Steroid hormone receptor ERR2, residues 100 to 176; numbered along this chain, O95718 (parent)
chain: KRLCLVCGDIASGYHYGVASCEACKAFFKRTIQGNIEYSCPATNECEITKRRRKSCQACRFMKCLKVGMLKEGVRLD

Variants of: B1
Experiment: abundance fitness (aPCA) (normalised: wild type 0, dead -1); higher = more abundant; growth selection in yeast, the domain comes from the species named
Conditions: Homo sapiens

Abundance fitness: each site, then its substitutions
S42: A -0.021 ± 0.051 | D 0.209 ± 0.07 | E 0.119 ± 0.06 | Q -0.049 ± 0.094 | G 0.078 ± 0.057 | I -0.446 ± 0.13 | P 0.056 ± 0.087 | C 0.012 ± 0.084 | M -0.262 ± 0.082 | R -0.127 ± 0.063 | Y -0.34 ± 0.085 | T 0.064 ± 0.075 | N 0.142 ± 0.092 | F -0.656 ± 0.27 | H 0.089 ± 0.069 | L -0.342 ± 0.082
A40: S 0.065 ± 0.07 | W -0.406 ± 0.064 | R -0.019 ± 0.053 | Y -0.572 ± 0.26 | V -0.236 ± 0.06 | T 0.035 ± 0.087 | P 0.228 ± 0.089 | Q 0.082 ± 0.095
L41: T 0.12 ± 0.057 | G 0.051 ± 0.048 | H 0.172 ± 0.075 | F -0.132 ± 0.1 | S 0.134 ± 0.057 | N -0.034 ± 0.099 | V -0.053 ± 0.054 | Q 0.136 ± 0.058 | W 0.001 ± 0.058 | A 0.072 ± 0.052 | C 0.176 ± 0.09 | K 0.161 ± 0.058 | Y -0.467 ± 0.2 | M 0.069 ± 0.093 | I -0.082 ± 0.09 | P 0.297 ± 0.061
E43: K 0.091 ± 0.22 | W -0.175 ± 0.15 | L -0.241 ± 0.12 | V -0.534 ± 0.16 | D -0.239 ± 0.2 | S 0.058 ± 0.1 | A -0.004 ± 0.064 | H -0.197 ± 0.1 | R -0.031 ± 0.058 | T -0.221 ± 0.35 | P -0.076 ± 0.1 | Q -0.317 ± 0.12 | G -0.045 ± 0.078

Variants of: B2
Experiment: as above
Conditions: Homo sapiens

Abundance fitness: each site, then its substitutions
C7: A -0.775 ± 0.11 | L -1.17 ± 0.17 | N -0.635 ± 0.19 | H -1 ± 0.28 | I -1.05 ± 0.25 | D -0.602 ± 0.12 | G -0.96 ± 0.11 | E -0.874 ± 0.13 | F -0.362 ± 0.12 | K -1.19 ± 0.23
L3: E -0.048 ± 0.052 | Q -0.055 ± 0.062 | P -0.372 ± 0.083 | G -0.118 ± 0.041 | C -0.373 ± 0.11 | I 0.319 ± 0.087 | H 0.133 ± 0.072 | V -0.036 ± 0.047 | T -0.025 ± 0.054 | S -0.062 ± 0.053 | Y 0.219 ± 0.085 | R -0.152 ± 0.042 | F 0.284 ± 0.077 | W -0.446 ± 0.066 | A -0.047 ± 0.048 | M -0.1 ± 0.073 | N 0.179 ± 0.07
L5: W -0.332 ± 0.081 | K -0.143 ± 0.062 | V -0.424 ± 0.067 | Q -0.094 ± 0.061 | T -0.031 ± 0.06 | P -0.358 ± 0.085 | N -0.246 ± 0.083 | C -0.375 ± 0.14 | H -0.351 ± 0.18 | G -0.341 ± 0.052 | S -0.233 ± 0.058 | M -0.139 ± 0.067 | R -0.197 ± 0.045 | A -0.192 ± 0.055 | I -0.333 ± 0.12 | F -0.133 ± 0.11 | Y -0.186 ± 0.12
K1: A -0.34 ± 0.12 | T -0.177 ± 0.08 | W -0.387 ± 0.099 | L -0.67 ± 0.18 | N 0.031 ± 0.12 | M 0.013 ± 0.074 | F -0.641 ± 0.23 | C -0.432 ± 0.16 | E -0.128 ± 0.07 | V -0.334 ± 0.087 | R -0.286 ± 0.074 | D -0.089 ± 0.092 | G -0.386 ± 0.071 | S -0.295 ± 0.1 | H -0.525 ± 0.29 | I -0.45 ± 0.27 | Q -0.346 ± 0.14
V6: E -0.612 ± 0.091 | T -0.51 ± 0.1 | H -1.18 ± 0.48 | M -1.01 ± 0.19 | Y -0.57 ± 0.16 | G -0.768 ± 0.087 | C -0.684 ± 0.14 | P -0.978 ± 0.21 | W -0.751 ± 0.14 | Q -0.781 ± 0.14 | N -0.826 ± 0.2 | S -0.713 ± 0.1 | D -0.934 ± 0.24 | K -0.211 ± 0.074 | A -0.497 ± 0.078 | R -0.739 ± 0.08 | L -0.836 ± 0.11
R2: Q -0.367 ± 0.096 | D 0.125 ± 0.1 | P -0.502 ± 0.19 | F 0.16 ± 0.13 | L -0.136 ± 0.056 | S -0.187 ± 0.066 | Y 0.014 ± 0.11 | T -0.263 ± 0.07 | N 0.04 ± 0.1 | A -0.226 ± 0.067 | W -0.338 ± 0.082 | M -0.074 ± 0.067 | K -0.066 ± 0.074 | G -0.176 ± 0.058 | C -0.111 ± 0.11 | V -0.228 ± 0.066 | E -0.105 ± 0.071 | H 0.072 ± 0.11
C4: V -0.917 ± 0.14 | P -0.938 ± 0.19 | R -0.792 ± 0.094 | S -0.824 ± 0.11 | Y -0.426 ± 0.2 | F -1.09 ± 0.37 | M -0.72 ± 0.14 | L -0.8 ± 0.11 | T -0.79 ± 0.17 | H -0.956 ± 0.29 | A -0.801 ± 0.11 | E -0.634 ± 0.12 | W -0.934 ± 0.15 | I -0.956 ± 0.3 | D -1.1 ± 0.32 | G -0.696 ± 0.083 | Q -0.759 ± 0.12 | K -0.66 ± 0.13
